Laboratory results from publication PMC4761994, “Unraveling and engineering the production of 23,24-bisnorcholenic steroids in sterol metabolism” (Scientific Reports, 2016).
Each block holds one molecule with its values, some of them ahead of it.

Columns and labels:
[1] = tested on: C[C@]12CC[C@H]3[C@@H](CCC4=CC(=O)CC[C@@]43C)[C@@H]1CC[C@@H]2O; assay: purified protein; assay type: biochemical, Mycolicibacterium neoaurum; settings: NAD+ 100 μM, 100 mM Tris-HCl pH 7.8, 30 °C, pH 7.8
[2] = tested on: CC(O)CC(=O)SCCNC(=O)CCNC(=O)[C@H](O)C(C)(C)COP(=O)(O)OP(=O)(O)OC[C@H]1O[C@@H](n2cnc3c(N)ncnc32)[C@H](O)[C@@H]1OP(=O)(O)O; assay: purified protein; assay type: biochemical, Mycolicibacterium neoaurum; settings: NAD+ 125 μM, 125 mM glycine-NaOH pH 9.0, 30 °C, DL mixture of substrate, pH 9.0
[3] = tested on: C[C@]12CC[C@H]3[C@@H](CCC4=CC(=O)C=C[C@@]43C)[C@@H]1CC[C@@H]2O; assay: purified protein; assay type: biochemical, Mycolicibacterium neoaurum; settings: NAD+ 100 μM, 100 mM Tris-HCl pH 7.8, 30 °C, pH 7.8
Hsd4AMN = target: T1, Hsd4AMN (Mycolicibacterium neoaurum, UniProt A0A0H3W613); assay: NADH oxidation at […] nm, Michaelis-Menten fit; assay type: biochemical; settings: NADH 125 μM; 125 mM Tris-HCl pH 8.0; 30 °C
T1 construct: gene hsd4A

Molecule: Hsd4AMN (Mycolicibacterium neoaurum ATCC 25795)
- Km [1]: 23 ± 7 µM
- Vmax [1]: 0.169 µmol/min/mg
- Km [2]: 124 ± 39 µM
- Vmax [2]: 0.113 µmol/min/mg
- Km [3]: 19 ± 4 µM
- Vmax [3]: 0.217 µmol/min/mg

- Km (Hsd4AMN): 101 ± 27 µM
Molecule: CC(=O)CC(=O)SCCNC(=O)CCNC(=O)[C@H](O)C(C)(C)COP(=O)(O)OP(=O)(O)OC[C@H]1O[C@@H](n2cnc3c(N)ncnc32)[C@H](O)[C@@H]1OP(=O)(O)O [acetoacetyl-CoA]
